Reference: patent US20260209362A1 (VIB VZW, published 2026)

B1: anti-IL-12Rβ2 VHH clone 3CRHS106 (clone ID 20429) (VHH)
VHH: QVQLQESGGGLVQPGGSLRLSCKASGFTFSTYAMSWVRQAPGKGLEWVSAVNSGGLSTDYADSVEGRFTISRDDAKNMLFLQMNSLKPEDTARYYCAKYEDCSDYMCHRDRAGYWGQGTQVTVSS
notes: Tested as periplasmic extract; not shown: C-terminal HA tag
B2: anti-IL-12Rβ2 VHH clone 3CRH25 (clone ID 20378) (VHH)
VHH: QVQLQESGGGLVQAGDSLRLSCTASGHTFSRYTTIGWFRQAPGKDREFVAAIRWSGDITDYADAVKGRFTISRDNVKNTVYLQMNSLNPEDTAVYYCARGYSEYGVLSRNRGLYAYWGQGTQVTVSS
notes: as for B1
B3: anti-IL-12Rβ2 VHH clone 3CAHS102 (clone ID 20399) (VHH)
VHH: QVQLQESGGGLVQPGGSLRLSCAASGSILRINLMGWYRQVPGKQRELVAEMSTGGSTTYVDSVEGRFTISRDNAKNTVYLQMNSLKPEDTAVYYCNAKAWQLGRLENDDWGQGTQVTVSS
notes: as for B1
B4: anti-IL-12Rβ2 VHH clone 3CAHS171 (clone ID 20407) (VHH)
VHH: QVQLQESGGGLVQPGGSLRLTCVASGFPFSTHAMSWVRQPPGKGREWISAINSGGDSTDYADSVMGRFTISRDNAKNTVYLQMNSLKSEDTAAYYCAKYEDCSDYDCSSRASWGQGTQVTVSS
notes: as for B1
B5: anti-IL-12Rβ2 VHH clone 3CAHS41 (clone ID 20394) (VHH)
VHH: QVQLQESGGGLVQAGDSLRLSCAASGRTFDTYIVGWFRQAPGKEREFVSALSWSDDTTIRDDSLRGRFTISRDNAKNTVYLLMNSLKPEDTAVYYCAAKAKPPAATWSSYRNREWYDYWGQGTQVTVSS
notes: as for B1

Key:
[1] = molecular target: T1, biotinylated human recombinant IL-12Rβ2 (produced in-house) (human, UniProt Q99665 24-622, random biotinylated); test: BLI (Octet Red), periplasmic extract on biotinylated human IL-12Rβ2 on streptavidin tips, 1:1 model
T1 construct: Soluble recombinant protein used for panning, ELISA and BLI; also called hIL-12RB2; hIL12RB2
T1 sequence: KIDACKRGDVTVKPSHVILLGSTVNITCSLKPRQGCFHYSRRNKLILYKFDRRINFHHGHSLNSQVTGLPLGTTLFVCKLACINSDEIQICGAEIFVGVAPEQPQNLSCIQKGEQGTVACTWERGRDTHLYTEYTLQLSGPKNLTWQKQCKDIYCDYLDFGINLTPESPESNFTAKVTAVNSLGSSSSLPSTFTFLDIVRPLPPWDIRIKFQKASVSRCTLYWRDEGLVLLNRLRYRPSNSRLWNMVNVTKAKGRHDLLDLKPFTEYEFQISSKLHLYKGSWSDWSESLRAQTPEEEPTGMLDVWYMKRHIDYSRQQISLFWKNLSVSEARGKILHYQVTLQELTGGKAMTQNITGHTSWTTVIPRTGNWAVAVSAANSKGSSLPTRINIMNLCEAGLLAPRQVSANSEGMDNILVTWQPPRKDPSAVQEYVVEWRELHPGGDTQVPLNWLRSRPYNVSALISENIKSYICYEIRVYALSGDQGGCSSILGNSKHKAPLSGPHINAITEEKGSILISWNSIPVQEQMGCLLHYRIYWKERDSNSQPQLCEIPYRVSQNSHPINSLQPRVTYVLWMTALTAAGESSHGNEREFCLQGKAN

[2] = molecular target: T2, biotinylated mouse recombinant IL-12Rβ2 (produced in-house) (mouse, UniProt P97378 24-637, random biotinylated); test: ELISA, periplasmic extract on biotinylated mouse IL-12Rβ2; signal over streptavidin control well
T2 construct: Soluble recombinant protein used for panning, ELISA and BLI; also called mIL-12RB2; mIL12RB2
T2 sequence: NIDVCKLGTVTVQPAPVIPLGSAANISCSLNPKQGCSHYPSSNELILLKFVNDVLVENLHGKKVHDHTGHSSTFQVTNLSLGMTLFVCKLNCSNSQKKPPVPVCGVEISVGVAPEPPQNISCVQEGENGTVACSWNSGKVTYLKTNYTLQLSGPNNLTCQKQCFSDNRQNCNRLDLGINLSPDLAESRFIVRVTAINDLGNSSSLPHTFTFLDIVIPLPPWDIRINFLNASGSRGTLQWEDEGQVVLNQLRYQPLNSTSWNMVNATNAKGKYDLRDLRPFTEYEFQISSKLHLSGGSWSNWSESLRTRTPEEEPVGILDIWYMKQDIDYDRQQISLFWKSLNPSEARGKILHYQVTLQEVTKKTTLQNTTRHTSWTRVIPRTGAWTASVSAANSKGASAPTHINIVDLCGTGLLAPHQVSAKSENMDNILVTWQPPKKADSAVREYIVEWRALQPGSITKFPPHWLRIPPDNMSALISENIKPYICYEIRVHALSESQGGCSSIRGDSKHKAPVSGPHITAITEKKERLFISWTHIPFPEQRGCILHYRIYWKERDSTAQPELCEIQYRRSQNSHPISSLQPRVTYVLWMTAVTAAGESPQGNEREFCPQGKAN

[3] = molecular target: T1, biotinylated human recombinant IL-12Rβ2 …; test: BLI (Octet Red), periplasmic extract on biotinylated human IL-12Rβ2 on streptavidin tips
[4] = molecular target: T1, biotinylated human recombinant IL-12Rβ2 …; test: ELISA, periplasmic extract on biotinylated human IL-12Rβ2; signal over streptavidin control well
[5] = molecular target: T3, human IL-12Rβ2 expressed on cells (human, UniProt Q99665 24-862); test: flow cytometry, periplasmic extract VHH-HA on HEK293T cells transiently expressing human IL-12Rβ2
T3 construct: the cell lines are described by plasmid or cDNA number only; also called hIL-12RB2; HEK293T transiently transfected with human IL-12Rβ2
T3 sequence: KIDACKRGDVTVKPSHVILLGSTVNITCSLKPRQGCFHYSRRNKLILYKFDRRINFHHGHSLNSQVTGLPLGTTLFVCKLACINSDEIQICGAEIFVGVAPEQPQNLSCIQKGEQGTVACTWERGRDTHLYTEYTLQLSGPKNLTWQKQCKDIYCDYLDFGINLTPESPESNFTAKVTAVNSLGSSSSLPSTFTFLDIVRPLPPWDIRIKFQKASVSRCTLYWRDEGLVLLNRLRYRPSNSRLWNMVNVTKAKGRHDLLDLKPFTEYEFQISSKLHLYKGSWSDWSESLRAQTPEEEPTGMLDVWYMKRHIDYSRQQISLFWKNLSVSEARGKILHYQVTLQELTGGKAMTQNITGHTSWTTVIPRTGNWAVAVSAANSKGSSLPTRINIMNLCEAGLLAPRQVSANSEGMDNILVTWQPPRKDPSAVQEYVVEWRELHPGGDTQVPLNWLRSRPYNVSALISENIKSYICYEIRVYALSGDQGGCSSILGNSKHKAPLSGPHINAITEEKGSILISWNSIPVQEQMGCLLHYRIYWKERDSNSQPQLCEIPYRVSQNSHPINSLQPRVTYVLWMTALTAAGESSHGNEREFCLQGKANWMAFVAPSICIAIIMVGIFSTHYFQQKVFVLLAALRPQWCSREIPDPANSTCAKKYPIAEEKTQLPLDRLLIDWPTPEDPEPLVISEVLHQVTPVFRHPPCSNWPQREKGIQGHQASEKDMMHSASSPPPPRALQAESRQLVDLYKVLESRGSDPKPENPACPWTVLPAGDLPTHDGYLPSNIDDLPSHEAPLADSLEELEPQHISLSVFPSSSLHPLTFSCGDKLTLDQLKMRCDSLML

[6] = molecular target: T2, biotinylated mouse recombinant IL-12Rβ2 …; test: ELISA, periplasmic extract on biotinylated mouse IL-12Rβ2

Binder	koff [1] [s⁻¹]	mIL12RB2/control (ELISA) [2] [ratio]	Response [3]	hIL12RB2/control (ELISA) [4] [ratio]	% cells bound [5] [%]	dMFI [5]	binding result [6]
B1	0.00355	1.03	0.297	10.2	43.3	1010	no binding
B2	0.00205	1.04	0.523	5.16	34.8	520	no binding
B3	0.00267	1.02	0.323	3.54	44.7	994	no binding
B4	0.00431	0.96	0.195	3.27	47.5	1180	no binding
B5	0.00441	1.35	0.509	8.77	43.3	971	no binding
